Paper PMC11745445 (2024)

B1: LV-MKK3-His-WT (His-labeled wild-type MKK3) in HT-22 cells [not stated] / RAGE (receptor for advanced glycation end products), endogenous in HT-22 cells [mouse (endogenous in HT-22)] (parent complex)
chain 1: MESPAASPPASLPQTKGKSKRKKDLRISCVSKPPVSNPTPPRNLDSRTFITIGDRNFEVEADDLVTISELGRGAYGVVEKVRHAQSGTIMAVKRIRATVNTQEQKRLLMDLDINMRTVDCFYTVTFYGALFREGDVWICMELMDTSLDKFYRKVLEKNMKIPEDILGEIAVSIVRALEHLHSKLSVIHRDVKPSNVLINKEGHVKMCDFGISGYLVDSVAKTMDAGCKPYMAPERINPELNQKGYNVKSDVWSLGITMIEMAILRFPYESWGTPFQQLKQVVEEPSPQLPADQFSPEFVDFTSQCLRKNPAERMSYLELMEHPFFTLHKTKKTDIAAFVKEILGEDS
chain 2: GQNITARIGEPLVLSCKGAPKKPPQQLEWKLNTGRTEAWKVLSPQGGPWDSVARILPNGSLLLPATGIVDEGTFRCRATNRRGKEVKSNYRVRVYQIPGKPEIVDPASELTASVPNKVGTCVSEGSYPAGTLSWHLDGKLLIPDGKETLVKEETRRHPETGLFTLRSELTVIPTQGGTHPTFSCSFSLGLPRRRPLNTAPIQLRVREPGPPEGIQLLVEPEGGIVAPGGTVTLTCAISAQPPPQVHWIKDGAPLPLAPSPVLLLPEVGHEDEGTYSCVATHPSHGPQESPPVSIRVTETGDEGPAEGSVGESGLGTLALALGILGGLGVVALLVGAILWRKRQPRREERKAPESQEDEEERAELNQSEEAEMPENGAGGP

Variants of: B1
Assay: co-IP (IP: RAGE, IB: MKK3-His) followed by western blotting, optical density; hippocampus of MKK3-knockdown db/db mice; n = 4 in each group; parent: 3.1; read off a plot

| response | Variant |
| --- | --- |
| ~1.4 fold change relative to the db/db + MKK3-shRNA group | chain 1 MESPAASPPASLPQTKGKSKRKKDLRISCVSKPPVSNPTPPRNLDSRTFITIGDRNFEVEADDLVTISELGRGAYGVVEKVRHAQSGTIMAVKRIRATVNTQEQKRLLMDLDINMRTVDCFYTVTFYGALFREGDVWICMELMDTSLDKFYRKVLEKNMKIPEDILGEIAVSIVRALEHLHSKLSVIHRDVKPSNVLINKEGHVKMCDFGISGYLVDSVAKTMDAGCKPYMAPERINPELNQKGYNVKSDVWSLGITMIEMAILRFPYESWGTPFQQLKQVVEEPSPQLPADQFSPEFVDFTSQCLRKNPAERMSYLELMEHPFFTLHATKKTDIAAFVKEILGEDS [chain 1 K329A] |

Variants of: B1
Assay: co-IP (IP: MKK3-His, IB: RAGE) followed by western blotting, optical density; hippocampus of MKK3-knockdown db/db mice; n = 4 in each group; parent: 1.7; read off a plot

| response | Variant |
| --- | --- |
| ~1.1 fold change relative to the db/db + MKK3-shRNA group | chain 1 MESPAASPPASLPQTKGKSKRKKDLRISCVSKPPVSNPTPPRNLDSRTFITIGDRNFEVEADDLVTISELGRGAYGVVEKVRHAQSGTIMAVKRIRATVNTQEQKRLLMDLDINMRTVDCFYTVTFYGALFREGDVWICMELMDTSLDKFYRKVLEKNMKIPEDILGEIAVSIVRALEHLHSKLSVIHRDVKPSNVLINKEGHVKMCDFGISGYLVDSVAKTMDAGCKPYMAPERINPELNQKGYNVKSDVWSLGITMIEMAILRFPYESWGTPFQQLKQVVEEPSPQLPADQFSPEFVDFTSQCLRKNPAERMSYLELMEHPFFTLHATKKTDIAAFVKEILGEDS [chain 1 K329A] |

Variants of: B1
Assay: co-IP (IP: MKK3-His, IB: RAGE) followed by western blotting, optical density; MKK3-knockdown HT-22 cells, high-glucose stimulation 24 hours; n = 4 in each group; parent: 4; read off a plot

| response | Variant |
| --- | --- |
| ~1.4 fold change relative to the HG + MKK3-shRNA group | chain 1 MESPAASPPASLPQTKGKSKRKKDLRISCVSKPPVSNPTPPRNLDSRTFITIGDRNFEVEADDLVTISELGRGAYGVVEKVRHAQSGTIMAVKRIRATVNTQEQKRLLMDLDINMRTVDCFYTVTFYGALFREGDVWICMELMDTSLDKFYRKVLEKNMKIPEDILGEIAVSIVRALEHLHSKLSVIHRDVKPSNVLINKEGHVKMCDFGISGYLVDSVAKTMDAGCKPYMAPERINPELNQKGYNVKSDVWSLGITMIEMAILRFPYESWGTPFQQLKQVVEEPSPQLPADQFSPEFVDFTSQCLRKNPAERMSYLELMEHPFFTLHATKKTDIAAFVKEILGEDS [chain 1 K329A] |

Variants of: B1
Assay: co-IP (IP: RAGE, IB: MKK3-His) followed by western blotting, optical density; MKK3-knockdown HT-22 cells, high-glucose stimulation 24 hours; n = 4 in each group; parent: 3.4; read off a plot

| response | Variant |
| --- | --- |
| ~1.1 fold change relative to the HG + MKK3-shRNA group | chain 1 MESPAASPPASLPQTKGKSKRKKDLRISCVSKPPVSNPTPPRNLDSRTFITIGDRNFEVEADDLVTISELGRGAYGVVEKVRHAQSGTIMAVKRIRATVNTQEQKRLLMDLDINMRTVDCFYTVTFYGALFREGDVWICMELMDTSLDKFYRKVLEKNMKIPEDILGEIAVSIVRALEHLHSKLSVIHRDVKPSNVLINKEGHVKMCDFGISGYLVDSVAKTMDAGCKPYMAPERINPELNQKGYNVKSDVWSLGITMIEMAILRFPYESWGTPFQQLKQVVEEPSPQLPADQFSPEFVDFTSQCLRKNPAERMSYLELMEHPFFTLHATKKTDIAAFVKEILGEDS [chain 1 K329A] |
